Assay [1] concerns the target BoNT/A binding domain (rBoNT/A-HC) (Clostridium botulinum).
For assay [2] the target is unchanged. The source holds these as a separate data set.

Several values for one entry are separate records, joined by “and”; a condition that tells them apart may be missing. Equal values may be shown once. Read-outs that look alike come from different tables or passages of the source.

BoNT/A binding domain (rBoNT/A-HC) (Clostridium botulinum), sequence (P0DPI1 873-1296): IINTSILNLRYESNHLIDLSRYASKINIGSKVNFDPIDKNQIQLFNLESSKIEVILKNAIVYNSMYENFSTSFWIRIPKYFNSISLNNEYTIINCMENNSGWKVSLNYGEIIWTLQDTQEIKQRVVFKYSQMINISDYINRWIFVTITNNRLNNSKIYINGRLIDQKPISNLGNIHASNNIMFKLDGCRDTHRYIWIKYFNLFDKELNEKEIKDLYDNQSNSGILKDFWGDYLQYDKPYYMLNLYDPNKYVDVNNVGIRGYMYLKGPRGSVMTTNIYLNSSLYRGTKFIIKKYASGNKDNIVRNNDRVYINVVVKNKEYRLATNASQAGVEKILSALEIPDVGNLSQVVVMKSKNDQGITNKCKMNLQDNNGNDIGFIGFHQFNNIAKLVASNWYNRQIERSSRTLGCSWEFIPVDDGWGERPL

Regarding “SV2C (transfected, pReceiver-M02/SV2C) (receptor)”, in assay [1], the Percentage increase was 8% and 6%; the RUMax was 140 RU and 85 RU.
FGFR3 and SV2C co-transfected: in assay [1], the Percentage increase is 27% and 13%; the RUMax was 165 RU and 90 RU.
Regarding “FGFR1 (transfected, pReceiver-M02/FGFR1) (receptor)”, the RUMax in assay [2] was 480 RU and 470 RU and 330 RU.
Take “FGFR3 (transfected, pReceiver-M02/FGFR3) (receptor)”: the Percentage increase in assay [2] is 46% and 38% and 40%; in assay [1], 73%. In addition, the RUMax in assay [2] is 510 RU and 450 RU; in assay [1], 225 RU and 110 RU.
“FGFR2 (transfected, pReceiver-M02/FGFR2) (receptor)”: in assay [2], the Percentage increase is 46% and 24% and 40%; the RUMax is 510 RU and 460 RU and 450 RU.
